Positions count from the first letter of the chain named. In names and notes the source's numbering stands.
Test system: PPO-deficient BT3 E. coli (ΔPPO)
Experiment: PPO-inhibiting herbicide tolerance test of PPO variants in E. coli (growth on herbicide-containing LB agar)
Assay type: cell-based
Conditions: CyPPO19 variants in BT3 (ΔPPO) E. coli; LB agar with 0 to 2,000 μM herbicide, 37° C., dark, 16-20 hours
Description: To enhance the PPO-inhibiting herbicide resistance of CyPPO19 and CyPPO18, PPO variant genes of the above example 2 were constructed. They were transformed to BT3 (ΔPPO) strain which is deficient of PPO activity and cultured in LB media with PPO-inhibiting herbicide, thereby examining whether growth of transformed BT3 was not inhibited.
BT3 competent cells were transformed with the pET303-CyPPO19 (wild type), pET303-CyPPO18 (wild type) plasmids, and those with a mutation(s) constructed (refer to example 2) via heat shock method, and were cultured in LB agar media containing ampicillin.
Single colony transformed with each CyPPO gene was cultured in 3 mL of LB broth (LPSS) containing ampicillin for more than 12 hours, and then was subcultured in LB broth until absorbance (OD600) reached 0.5 to 1. Then, it was diluted with LB broth to OD600=0.5. Again, the diluted solution was serially diluted 4 times by a factor of one tenth.
The LB agar media (LB 25 g/L, Bacto agar 12 g/L) containing ampicillin (100 μg/mL) and 0 to 2,000 μM of various herbicides were prepared. Herbicide solution stocks were all prepared in DMSO.
Then, 10 μL of each diluted solution of E. coli was dropped on the plate and cultured at 37° C. under dark for 16-20 hours. PPO-inhibiting herbicide resistance was evaluated with the extent of E. coli growth containing each gene was observed.
The extent of herbicide resistance was evaluated by the relative growth of variants to that of wild type, and listed in Tables 9 and 10 and FIGS. 3 to 32.
In Tables 9 and 10, the tolerance level of variants showing equivalent resistance to wild type was presented as ‘−’, and was done as ‘+’ per each 10-fold resistance until ‘+++++’ as maximal resistance.
FIGS. 3 to 30 and FIGS. 31 and 32 show the transformed E. coli growth result of CyPPO19 WT and its variants and CyPPO18 WT and its variants, respectively. The concentrations of herbicides were written above the photographs of tolerance test. A 10-fold dilution series of spots were shown from OD600=0.5 of the leftmost spot to OD600=0.00005 of the rightmost one.

B1: CyPPO19 V165C + V305M + F360I: variant of CyPPO19 PPO protein (SEQ ID NO: 1) (protein)
chain: MSEVDVAIVGGGLSGLSLAWRLQQSAPQYSVVLLEASDRLGGNITTQTAEGFVWELGPNSFAPTPALLQLIAEVGLQSELIRGDRHLPRYIYWRGQLYPLQPTRPLALATSNLLSPWGKVRAALGALGFVPPYLGSGDESVNSFFRRHLGQEVAERLVAPFVSGCYAGDPQQLSAAAAFRRIAQLEKLGGGLIAGALHLRRQQAPKPKPPTSVQMRPGELGSFKEGLAALPRAIAQQLKAPIHLQTPVQEITPDPKGGYLLRSGEQTWRARSVVLATPAYQTAELVAPFQPAIARVLATIPYPTMACVVLAYPAGLGRSVRPGFGVLIPRSQGIRTLGTIWSSCLFPQRTPAGWQVFTSIIGGATDPDLASLSEEAIVQQVQQDLNRLLDLPAAKARLLGMKVWRRAIPQYMVGYPEQWQQVTHALSQTPGLFLCSNYAEGVALGDRVEHGNRTAAAVAAYLSGGQP
modifications: Synthetic_PPO of Thermosynechococcus elongatus PKUAC-SCTE542 (comprising GenBank No. CP032152.1)
tolerance level relative to wild type, Carfentrazone: + (‘+’ per each 10-fold resistance)
tolerance level relative to wild type, Flumioxazin: +++++ (until ‘+++++’ as maximal resistance)
tolerance level relative to wild type, Fomesafen: ++ (‘+’ per each 10-fold resistance)
tolerance level relative to wild type, Oxyfluorfen: ++ (‘+’ per each 10-fold resistance)
tolerance level relative to wild type, Saflufenacil: +++++ (until ‘+++++’ as maximal resistance)
tolerance level relative to wild type, Sulfentrazone: +++ (‘+’ per each 10-fold resistance)
tolerance level relative to wild type, Tiafenacil: +++++ (until ‘+++++’ as maximal resistance)

B2: CyPPO19 V165C + I408W + F360T: variant of CyPPO19 PPO protein (SEQ ID NO: 1) (protein)
chain: B1 chain with M305V, I360T, I408W
modifications: Synthetic_PPO of Thermosynechococcus elongatus PKUAC-SCTE542 (comprising GenBank No. CP032152.1)
tolerance level relative to wild type, Carfentrazone: + (‘+’ per each 10-fold resistance)
tolerance level relative to wild type, Flumioxazin: ++++ (‘+’ per each 10-fold resistance)
tolerance level relative to wild type, Fomesafen: + (‘+’ per each 10-fold resistance)
tolerance level relative to wild type, Oxyfluorfen: ++ (‘+’ per each 10-fold resistance)
tolerance level relative to wild type, Saflufenacil: ++++ (‘+’ per each 10-fold resistance)
tolerance level relative to wild type, Sulfentrazone: +++ (‘+’ per each 10-fold resistance)
tolerance level relative to wild type, Tiafenacil: ++++ (‘+’ per each 10-fold resistance)

B3: CyPPO19 V165C + V305M + F360V: variant of CyPPO19 PPO protein (SEQ ID NO: 1) (protein)
chain: B1 chain with I360V
modifications: Synthetic_PPO of Thermosynechococcus elongatus PKUAC-SCTE542 (comprising GenBank No. CP032152.1)
tolerance level relative to wild type, Carfentrazone: + (‘+’ per each 10-fold resistance)
tolerance level relative to wild type, Flumioxazin: +++++ (until ‘+++++’ as maximal resistance)
tolerance level relative to wild type, Fomesafen: ++ (‘+’ per each 10-fold resistance)
tolerance level relative to wild type, Oxyfluorfen: +++ (‘+’ per each 10-fold resistance)
tolerance level relative to wild type, Saflufenacil: +++++ (until ‘+++++’ as maximal resistance)
tolerance level relative to wild type, Sulfentrazone: ++++ (‘+’ per each 10-fold resistance)
tolerance level relative to wild type, Tiafenacil: +++++ (until ‘+++++’ as maximal resistance)

B4: CyPPO19 V165C + I408W + F360V: variant of CyPPO19 PPO protein (SEQ ID NO: 1) (protein)
chain: B1 chain with M305V, I360V, I408W
modifications: Synthetic_PPO of Thermosynechococcus elongatus PKUAC-SCTE542 (comprising GenBank No. CP032152.1)
tolerance level relative to wild type, Carfentrazone: + (‘+’ per each 10-fold resistance)
tolerance level relative to wild type, Flumioxazin: ++++ (‘+’ per each 10-fold resistance)
tolerance level relative to wild type, Fomesafen: +++ (‘+’ per each 10-fold resistance)
tolerance level relative to wild type, Oxyfluorfen: ++++ (‘+’ per each 10-fold resistance)
tolerance level relative to wild type, Saflufenacil: ++++ (‘+’ per each 10-fold resistance)
tolerance level relative to wild type, Sulfentrazone: +++ (‘+’ per each 10-fold resistance)
tolerance level relative to wild type, Tiafenacil: ++++ (‘+’ per each 10-fold resistance)

B5: CyPPO19 V165S + L327T + F360T: variant of CyPPO19 PPO protein (SEQ ID NO: 1) (protein)
chain: B1 chain with C165S, M305V, L327T, I360T
modifications: Synthetic_PPO of Thermosynechococcus elongatus PKUAC-SCTE542 (comprising GenBank No. CP032152.1)
tolerance level relative to wild type, Carfentrazone: + (‘+’ per each 10-fold resistance)
tolerance level relative to wild type, Flumioxazin: +++++ (until ‘+++++’ as maximal resistance)
tolerance level relative to wild type, Fomesafen: +++ (‘+’ per each 10-fold resistance)
tolerance level relative to wild type, Oxyfluorfen: ++ (‘+’ per each 10-fold resistance)
tolerance level relative to wild type, Saflufenacil: ++++ (‘+’ per each 10-fold resistance)
tolerance level relative to wild type, Sulfentrazone: +++ (‘+’ per each 10-fold resistance)
tolerance level relative to wild type, Tiafenacil: ++++ (‘+’ per each 10-fold resistance)

B6: CyPPO19 V165C + L327T + F360I: variant of CyPPO19 PPO protein (SEQ ID NO: 1) (protein)
chain: B1 chain with M305V, L327T
modifications: Synthetic_PPO of Thermosynechococcus elongatus PKUAC-SCTE542 (comprising GenBank No. CP032152.1)
tolerance level relative to wild type, Carfentrazone: + (‘+’ per each 10-fold resistance)
tolerance level relative to wild type, Flumioxazin: +++++ (until ‘+++++’ as maximal resistance)
tolerance level relative to wild type, Fomesafen: ++ (‘+’ per each 10-fold resistance)
tolerance level relative to wild type, Oxyfluorfen: +++ (‘+’ per each 10-fold resistance)
tolerance level relative to wild type, Saflufenacil: ++++ (‘+’ per each 10-fold resistance)
tolerance level relative to wild type, Sulfentrazone: +++++ (until ‘+++++’ as maximal resistance)
tolerance level relative to wild type, Tiafenacil: +++++ (until ‘+++++’ as maximal resistance)

B7: CyPPO19 V165S + V305L + F360L: variant of CyPPO19 PPO protein (SEQ ID NO: 1) (protein)
chain: B1 chain with C165S, M305L, I360L
modifications: Synthetic_PPO of Thermosynechococcus elongatus PKUAC-SCTE542 (comprising GenBank No. CP032152.1)
tolerance level relative to wild type, Carfentrazone: + (‘+’ per each 10-fold resistance)
tolerance level relative to wild type, Flumioxazin: +++++ (until ‘+++++’ as maximal resistance)
tolerance level relative to wild type, Fomesafen: +++ (‘+’ per each 10-fold resistance)
tolerance level relative to wild type, Oxyfluorfen: +++ (‘+’ per each 10-fold resistance)
tolerance level relative to wild type, Saflufenacil: +++++ (until ‘+++++’ as maximal resistance)
tolerance level relative to wild type, Sulfentrazone: +++++ (until ‘+++++’ as maximal resistance)
tolerance level relative to wild type, Tiafenacil: +++++ (until ‘+++++’ as maximal resistance)

B8: CyPPO19 V165C + L327T + F360V: variant of CyPPO19 PPO protein (SEQ ID NO: 1) (protein)
chain: B1 chain with M305V, L327T, I360V
modifications: Synthetic_PPO of Thermosynechococcus elongatus PKUAC-SCTE542 (comprising GenBank No. CP032152.1)
tolerance level relative to wild type, Carfentrazone: + (‘+’ per each 10-fold resistance)
tolerance level relative to wild type, Flumioxazin: +++++ (until ‘+++++’ as maximal resistance)
tolerance level relative to wild type, Fomesafen: + (‘+’ per each 10-fold resistance)
tolerance level relative to wild type, Oxyfluorfen: +++ (‘+’ per each 10-fold resistance)
tolerance level relative to wild type, Saflufenacil: ++++ (‘+’ per each 10-fold resistance)
tolerance level relative to wild type, Sulfentrazone: +++++ (until ‘+++++’ as maximal resistance)
tolerance level relative to wild type, Tiafenacil: +++++ (until ‘+++++’ as maximal resistance)

Reference: patent publication US12698507B2, “Methods and compositions for conferring and/or enhancing herbicide tolerance using protoporphyrinogen IX oxidase of various cyanobacteria or variant thereof” (FarmHannong Co., Ltd., priority 2019, dated 2026)
